Measured values from the supplement of paper PMC10567573.

B1: APBB1IP (parent)
chain: FNYSVGFKDLNESLNALEDQDLDA
B2: RBBP5 (parent)
chain: TGTSNTTAIKSIEFARKGSCFLIN

Variants of: B1
Assay: protein stability index of a GFP-peptide fusion (GPS, HEK-293T) (PSI 1-6); higher = more stable
Details: c terminus: a fixed tail appended
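Also: lentivirally expressed fusions sorted by FACS into six bins by GFP to DsRed ratio, PSI derived from sequencing read proportions per bin multiplied by bin number.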

Protein stability index of substitutions, site by site:
A16: I 4, T 4.57, W 3.41, D 4.6, P 4.33, E 5.02, M 4.1, R 4.14, S 4.19
L22: R 4.5, P 4.92, V 4.6, E 5.45, F 4.49
E12: Y 3.12, Q 4.28, A 3.74, F 3.63, W 2.8, G 4.2, H 3.69
V5: C 4.08, L 4.55, E 4.47, N 4.36
L17: E 5.04, R 5.01, K 4.48, M 4.17, D 5.25, A 4.63, W 3.85, F 4.43
L14: S 4.47, H 5.1, C 3.86, K 4.48, V 4.5, F 4
K8: C 3.36, H 3.81, P 4.79, V 3.52, W 2.27, E 5.1, D 5.05, G 4.65, I 2.51, R 4.33
L10: M 4.81, R 4.54, A 4.71, Q 4.93, W 3.95, N 4.75, E 5.09, G 4.95, P 4.62
D23: A 3.79, M 2.86, H 3.69, C 3.33, T 3.85, S 4.02, I 3.56, Y 2.57, Q 4.22
S13: F 3.34, I 2.88, W 2.85, D 4.31, C 4.25, P 4.41, E 3.95
S4: R 4.82, G 4.88, V 3.72, L 3.71
A24: W 3.77, M 3.85, V 4.5, L 4.09, K 4.81, N 4.5, S 4.59, C 4.24, D 4.68, I 4.07, P 4.42
G6: M 3.12, T 3.57, K 4.05, H 3.71, V 2.55, Q 4.17
D21: W 2.43, T 4.14, G 3.94, K 4.19, I 2.81, S 4.33
Q20: L 3.88, M 3.7, A 4.42, C 4.02, K 4.2, I 3.97, W 3.7
D19: T 3.86, H 3.7, F 3, W 3.42, N 4.04, C 4.06
N15: T 4.78, E 4.14, I 4.01, C 4.32, Q 4.28, F 3.72, Y 3.62, V 4.7, S 4.15, W 2.92, D 4.77
F1: Q 5.38, N 5.51, L 4.7, V 4.66, W 4.53, D 5.74, A 5, C 4.79, P 5.21
N11: W 2.58, Y 3.25, V 3.45, E 4.88, P 4.23, Q 4.38, K 4.17, H 4.21
N2: Q 2.88, H 1.98, P 2.44, M 1.99, D 5.38
F7: I 4.21, W 3.9, C 5.09, R 5.71, V 4.92
Y3: L 4.52, F 3.71, S 4.76, A 5.06, P 5.15, V 3.54, C 4.74, R 5.36, I 4.21, D 4.89, G 4.82
D9: E 4.25, K 4.19, S 3.45, I 2.49, Q 4.22, W 2.7, P 4.15, R 4.05, Y 3.44, L 3.09, N 4.31, C 3.13
E18: D 4.34, P 4.51, G 3.96, F 2.79, N 4.06, M 3.59, R 2.87, I 2.67, L 3.24

Variants of: B2
Assay: as above
Details: c terminus: a fixed tail appended

Protein stability index, by site and new letter:
S4: Q 2.54, K 2.67, M 2.21, C 2.2, F 1.97, A 2.29, D 2.35, R 1.91, V 2.09, G 2.17, H 2.3, W 1.83, P 2.01, I 2.52, E 2.35, L 2.17, T 1.95, N 2.36, Y 2.41
T1: A 2.15, W 1.69, P 2.47, D 3.69, L 2.11, Q 2.79, N 2.3, S 2.2, H 2.59, R 2.75, M 2.43, Y 1.79, E 3.07, G 2.19, V 1.87, I 1.79, K 2.45, C 1.53, F 1.88
T6: H 2.67, I 1.63, G 1.98, R 1.55, Q 2.12, C 2.05, Y 1.87, E 2.82, N 3.06, P 2.29, S 2.64, A 2.87, L 2.16, K 2.15, V 1.87, D 2.55, M 2.04, W 1.74, F 2.09
A8: E 2.71, G 2.84, P 2.69, N 2.56, K 2.2, V 1.58, F 1.81, D 2.36, M 2.21, R 1.62, C 2.71, Q 2.21, T 2.68, L 2.17, S 2.01, I 1.74, H 1.85
G2: E 2.75, D 2.62, Q 2.47, R 2.07, I 1.89, S 2.11, P 2.63, T 2.14, M 2.48, V 2.44, L 2.18, Y 3.22, H 2.03, W 2.51, C 2.17, K 2.31, F 1.76, A 2.02, N 2.29
N5: P 2.08, L 1.9, A 2.1, G 2.12, Y 1.63, S 2.02, C 1.93, W 1.64, I 1.95, E 2.57, D 2.35, F 2.2, R 2.36, T 2.09, H 2.12, K 2.15, M 1.66, Q 2.58, V 2.38
T3: E 2.55, N 1.86, G 2.24, M 2.2, L 2.17, F 1.61, W 2.02, H 2.52, P 2.46, Y 1.94, Q 2.11, I 1.83, A 2.15, D 2.46, C 1.98, R 1.88, V 1.87, S 1.9, K 2.9
T7: C 1.26, W 1.95, M 1.95, A 2.85, K 2.04, G 2.56, H 1.97, Y 1.89, E 2.51, P 2.74, Q 2.66, F 1.93, I 2.23, S 2.4, D 2.3, R 2.15, L 1.77, V 1.96, N 2.14
